How the values were obtained:
[1] = molecular target: RXRa (Homo sapiens, UniProt P19793); experiment: no ligand; PBM; 180 nM; PBS pH 7.4, 2% milk, 0.02% Triton X-100, 1 mM DTT, BSA, 0.4 mg/ml salmon testes DNA; settings: tags: His cleaved; chain copies: 2; label: surface-attached array probe
[2] = molecular target: RARa:RXRa (Homo sapiens, UniProt P10276;P19793 full;full); experiment: no ligand; PBM; 270 nM : 90 nM RXRa; PBS pH 7.4, 2% milk, 0.02% Triton X-100, 1 mM DTT, BSA, 0.4 mg/ml salmon testes DNA; settings: tags: His kept;His cleaved; copies: 1;1; label: surface-attached array probe
Method in brief: (§1)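 On custom Agilent 4×180K arrays, double-stranded probes with 34-nt variable regions carried direct-repeat seeds, single-nucleotide variants, half-site ablations or random human genomic background. Ligand-free nuclear receptor dimers were applied for 1 h, and binding was read with antibodies against each partner (one per run). Binding z-scores come from regression-normalized fluorescence, with the random background probes as reference.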

[3] = molecular target: RARg:RXRa (Homo sapiens, UniProt P13631;P19793 full;full); experiment: as above; settings: tags: His kept;His cleaved; copies: 1;1; label: surface-attached array probe
Method in brief: as §1

[4] = molecular target: RARb:RXRa (Homo sapiens, UniProt P10826;P19793 full;full); experiment: as above; settings: tags: His kept;His cleaved; copies: 1;1; label: surface-attached array probe
Method in brief: as §1

[5] = molecular target: FXR:RXRa (Homo sapiens, UniProt Q96RI1;P19793 full;full); experiment: as above; settings: tags: His kept;His cleaved; copies: 1;1; label: surface-attached array probe
Method in brief: as §1

[6] = molecular target: PPARa:RXRa (Homo sapiens, UniProt Q07869;P19793 full;full); experiment: as above; settings: tags: GST kept;His cleaved; copies: 1;1; label: surface-attached array probe
Method in brief: as §1

Chain of RXRa (P19793 whole entry): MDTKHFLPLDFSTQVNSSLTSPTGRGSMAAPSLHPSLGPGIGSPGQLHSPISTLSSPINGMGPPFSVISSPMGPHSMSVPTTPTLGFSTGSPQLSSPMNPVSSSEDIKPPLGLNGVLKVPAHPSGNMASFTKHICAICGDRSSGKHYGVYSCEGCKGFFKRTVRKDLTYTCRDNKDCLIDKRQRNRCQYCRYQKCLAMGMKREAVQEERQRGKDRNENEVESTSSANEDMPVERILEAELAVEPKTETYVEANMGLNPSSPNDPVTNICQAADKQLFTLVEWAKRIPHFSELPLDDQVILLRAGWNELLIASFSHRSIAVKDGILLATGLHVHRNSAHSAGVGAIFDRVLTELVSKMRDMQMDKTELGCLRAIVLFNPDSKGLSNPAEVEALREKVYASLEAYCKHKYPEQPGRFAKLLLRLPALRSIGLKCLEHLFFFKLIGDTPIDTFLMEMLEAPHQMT
Chain of PPARa:RXRa (Q07869 whole entry, chain 1 of 2): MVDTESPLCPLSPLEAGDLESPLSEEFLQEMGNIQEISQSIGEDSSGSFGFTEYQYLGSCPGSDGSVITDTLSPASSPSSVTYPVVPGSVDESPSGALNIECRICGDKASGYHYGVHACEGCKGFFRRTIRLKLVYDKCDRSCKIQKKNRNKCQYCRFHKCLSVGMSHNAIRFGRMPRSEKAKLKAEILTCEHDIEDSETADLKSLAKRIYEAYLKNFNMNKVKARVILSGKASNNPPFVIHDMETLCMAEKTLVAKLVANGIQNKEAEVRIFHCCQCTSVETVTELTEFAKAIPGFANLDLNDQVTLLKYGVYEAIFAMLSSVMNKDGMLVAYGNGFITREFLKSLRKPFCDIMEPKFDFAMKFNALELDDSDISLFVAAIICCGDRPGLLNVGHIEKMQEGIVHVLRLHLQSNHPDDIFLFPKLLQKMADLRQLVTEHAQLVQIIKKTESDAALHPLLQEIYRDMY
Chain of PPARa:RXRa (P19793 whole entry, chain 2 of 2): as the sequence (P19793 whole entry) above
Chain of RARa:RXRa (P10276 whole entry, chain 1 of 2): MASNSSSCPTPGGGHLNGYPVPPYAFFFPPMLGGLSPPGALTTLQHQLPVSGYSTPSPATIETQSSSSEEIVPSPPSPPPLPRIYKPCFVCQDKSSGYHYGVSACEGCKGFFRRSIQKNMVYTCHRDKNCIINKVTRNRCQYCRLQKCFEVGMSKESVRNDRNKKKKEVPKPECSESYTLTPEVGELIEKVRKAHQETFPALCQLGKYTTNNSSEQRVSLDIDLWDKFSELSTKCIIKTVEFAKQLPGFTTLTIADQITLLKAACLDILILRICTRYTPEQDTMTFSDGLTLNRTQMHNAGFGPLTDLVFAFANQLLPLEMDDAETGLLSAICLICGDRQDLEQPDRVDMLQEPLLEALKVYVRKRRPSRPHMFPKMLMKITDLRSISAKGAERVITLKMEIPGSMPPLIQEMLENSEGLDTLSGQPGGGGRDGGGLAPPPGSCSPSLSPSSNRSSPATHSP
Chain of RARa:RXRa (P19793 whole entry, chain 2 of 2): as the sequence (P19793 whole entry) above
Chain of FXR:RXRa (Q96RI1 whole entry, chain 1 of 2): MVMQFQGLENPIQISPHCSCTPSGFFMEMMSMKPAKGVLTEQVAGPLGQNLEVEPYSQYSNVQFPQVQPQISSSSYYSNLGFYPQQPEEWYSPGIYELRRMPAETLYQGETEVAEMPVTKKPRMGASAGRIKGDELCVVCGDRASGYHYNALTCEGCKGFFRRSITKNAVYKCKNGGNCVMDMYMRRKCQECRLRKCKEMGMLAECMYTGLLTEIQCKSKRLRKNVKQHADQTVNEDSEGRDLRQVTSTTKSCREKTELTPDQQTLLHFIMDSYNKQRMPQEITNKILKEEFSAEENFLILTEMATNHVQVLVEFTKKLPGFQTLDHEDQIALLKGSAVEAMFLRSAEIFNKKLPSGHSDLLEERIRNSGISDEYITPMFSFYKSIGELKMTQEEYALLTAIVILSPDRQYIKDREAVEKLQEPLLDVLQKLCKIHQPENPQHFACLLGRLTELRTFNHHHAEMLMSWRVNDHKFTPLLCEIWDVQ
Chain of FXR:RXRa (P19793 whole entry, chain 2 of 2): as the sequence (P19793 whole entry) above
Chain of RARb:RXRa (P10826 whole entry, chain 1 of 2): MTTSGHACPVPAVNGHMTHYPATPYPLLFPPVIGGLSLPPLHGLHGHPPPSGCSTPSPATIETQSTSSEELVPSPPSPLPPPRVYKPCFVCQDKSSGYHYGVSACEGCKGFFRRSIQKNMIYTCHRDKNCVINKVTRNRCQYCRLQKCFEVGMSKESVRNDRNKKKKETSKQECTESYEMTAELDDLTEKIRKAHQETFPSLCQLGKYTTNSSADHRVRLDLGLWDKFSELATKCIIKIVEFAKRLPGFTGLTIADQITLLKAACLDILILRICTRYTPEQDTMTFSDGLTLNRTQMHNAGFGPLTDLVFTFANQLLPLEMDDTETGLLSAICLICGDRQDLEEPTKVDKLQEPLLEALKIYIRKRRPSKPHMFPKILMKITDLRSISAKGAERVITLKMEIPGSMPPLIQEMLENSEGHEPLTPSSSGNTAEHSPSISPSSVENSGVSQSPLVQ
Chain of RARb:RXRa (P19793 whole entry, chain 2 of 2): as the sequence (P19793 whole entry) above
Chain of RARg:RXRa (P13631 whole entry, chain 1 of 2): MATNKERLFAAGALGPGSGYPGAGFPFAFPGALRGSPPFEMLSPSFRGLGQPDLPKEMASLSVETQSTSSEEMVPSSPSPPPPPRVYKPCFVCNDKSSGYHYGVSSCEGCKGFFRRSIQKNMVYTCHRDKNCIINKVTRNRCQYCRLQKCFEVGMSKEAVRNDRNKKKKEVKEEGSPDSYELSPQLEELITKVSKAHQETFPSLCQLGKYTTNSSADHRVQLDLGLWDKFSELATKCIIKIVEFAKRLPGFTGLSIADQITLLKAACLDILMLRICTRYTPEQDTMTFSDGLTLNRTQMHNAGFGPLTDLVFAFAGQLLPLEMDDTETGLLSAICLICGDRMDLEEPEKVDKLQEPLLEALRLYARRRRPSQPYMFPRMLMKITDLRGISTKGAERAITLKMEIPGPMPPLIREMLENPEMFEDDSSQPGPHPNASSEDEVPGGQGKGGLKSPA
Chain of RARg:RXRa (P19793 whole entry, chain 2 of 2): as the sequence (P19793 whole entry) above

Row | Binder | binding signal [1] | binding signal [2] | binding signal [3] | binding signal [4] | binding signal [5] | binding signal [6]
1 | NRC3_wobSeed2_DR0_G17C_o1 (dsDNA) DNA 1: GCCCTAGTTGGTCAAGCTCACACACGCTATAGGTACGCGATTGACAGCGTAGAATGAAGG DNA 2: CCTTCATTCTACGCTGTCAATCGCGTACCTATAGCGTGTGTGAGCTTGACCAACTAGGGC | 0.35 PBM z-score against 500 random probes | 0.43 PBM z-score against 500 random probes |  |  |  | 
2 | NRC3_random_hg19_386_o1 (dsDNA) DNA 1: GCTCCCTTCCCTTCCCTTCCCTTCCCACAACCACTGGCGATTGACAGCGTAGAATGAAGG DNA 2: CCTTCATTCTACGCTGTCAATCGCCAGTGGTTGTGGGAAGGGAAGGGAAGGGAAGGGAGC | -0.1 PBM z-score against 500 random probes | 0.49 PBM z-score against 500 random probes | -0.29 PBM z-score against 500 random probes |  |  | 
3 | NRC3_random_hg19_403_o1 (dsDNA) DNA 1: GCATCTCCTGCCTCAGCCTCCTGAATAGGTGGGACTGCGATTGACAGCGTAGAATGAAGG DNA 2: CCTTCATTCTACGCTGTCAATCGCAGTCCCACCTATTCAGGAGGCTGAGGCAGGAGATGC |  | -0.6 PBM z-score against 500 random probes |  | -1.01 PBM z-score against 500 random probes |  | 
4 | NRC3_random_hg19_308_o1 (dsDNA) DNA 1: GCATGAACCACTTGAAGGGTGTGGCCTCCATCTTGCGCGATTGACAGCGTAGAATGAAGG DNA 2: CCTTCATTCTACGCTGTCAATCGCGCAAGATGGAGGCCACACCCTTCAAGTGGTTCATGC |  | 0.27 PBM z-score against 500 random probes |  |  | -0.1 PBM z-score against 500 random probes | 
5 | NRC3_wobSeed130_DR5_C13G_o1 (dsDNA) DNA 1: GCCTCGAAAGGTGGTGCTCAGGTGAGTATACCAAACGCGATTGACAGCGTAGAATGAAGG DNA 2: CCTTCATTCTACGCTGTCAATCGCGTTTGGTATACTCACCTGAGCACCACCTTTCGAGGC | -0.07 PBM z-score against 500 random probes | 0.34 PBM z-score against 500 random probes |  |  |  | 0.16 PBM z-score against 500 random probes
6 | NRC3_wobSeed36_DR1_G12T_o1 (dsDNA) DNA 1: GCCCGACTGGGTCAAAGGTTACCATACTCAGTACGAGCGATTGACAGCGTAGAATGAAGG DNA 2: CCTTCATTCTACGCTGTCAATCGCTCGTACTGAGTATGGTAACCTTTGACCCAGTCGGGC | 7.96 PBM z-score against 500 random probes | 7.7 PBM z-score against 500 random probes |  |  |  | 6.73 PBM z-score against 500 random probes
7 | NRC3_random_hg19_60_o1 (dsDNA) DNA 1: GCGTGCTCACATGTCACATTCTGGTGATTCTTGCAAGCGATTGACAGCGTAGAATGAAGG DNA 2: CCTTCATTCTACGCTGTCAATCGCTTGCAAGAATCACCAGAATGTGACATGTGAGCACGC |  | 0.05 PBM z-score against 500 random probes |  |  | -0.25 PBM z-score against 500 random probes | 
8 | NRC3_random_hg19_214_o1 (dsDNA) DNA 1: GCATCCGTTCCTTGGAGGGAGTCTGCAGACTGGCTGGCGATTGACAGCGTAGAATGAAGG DNA 2: CCTTCATTCTACGCTGTCAATCGCCAGCCAGTCTGCAGACTCCCTCCAAGGAACGGATGC |  | -2.33 PBM z-score against 500 random probes |  |  | -0.76 PBM z-score against 500 random probes | 
9 | NRC3_random_hg19_304_o1 (dsDNA) DNA 1: GCGGCTGTTAGCGCTCATCTCTGTGTGCCTTCACAGGCGATTGACAGCGTAGAATGAAGG DNA 2: CCTTCATTCTACGCTGTCAATCGCCTGTGAAGGCACACAGAGATGAGCGCTAACAGCCGC |  | -1 PBM z-score against 500 random probes |  | -1.19 PBM z-score against 500 random probes |  | 
10 | NRC3_random_hg19_84_o1 (dsDNA) DNA 1: GCGTAAGACACCTTCCTAGGAAGAGAACAGCAGAATGCGATTGACAGCGTAGAATGAAGG DNA 2: CCTTCATTCTACGCTGTCAATCGCATTCTGCTGTTCTCTTCCTAGGAAGGTGTCTTACGC | -0.13 PBM z-score against 500 random probes | -0.2 PBM z-score against 500 random probes |  |  | -0.49 PBM z-score against 500 random probes | 
11 | NRC3_random_hg19_254_o1 (dsDNA) DNA 1: GCGCCTCTGGAATGTAAACTCCAGCCTGGCATGTATGCGATTGACAGCGTAGAATGAAGG DNA 2: CCTTCATTCTACGCTGTCAATCGCATACATGCCAGGCTGGAGTTTACATTCCAGAGGCGC |  | -0.5 PBM z-score against 500 random probes |  | -0.34 PBM z-score against 500 random probes |  | 
12 | NRC3_wobSeed140_DR5_A9G_o1 (dsDNA) DNA 1: GCAGAATGGGGTTATACGTAGATCAGGGAAGAAAGTGCGATTGACAGCGTAGAATGAAGG DNA 2: CCTTCATTCTACGCTGTCAATCGCACTTTCTTCCCTGATCTACGTATAACCCCATTCTGC |  | 3.3 PBM z-score against 500 random probes |  |  | 4.21 PBM z-score against 500 random probes | 
13 | NRC3_wobSeed28_DR1_T8G_o1 (dsDNA) DNA 1: GCCCTACGGGGCCAAAGGTCATTGATTCCAATGCTCGCGATTGACAGCGTAGAATGAAGG DNA 2: CCTTCATTCTACGCTGTCAATCGCGAGCATTGGAATCAATGACCTTTGGCCCCGTAGGGC | 7.78 PBM z-score against 500 random probes | 7.56 PBM z-score against 500 random probes |  |  |  | 
14 | NRC3_wobSeed45_DR1_A20G_o1 (dsDNA) DNA 1: GCTGTCAAAGTTCAAAGGTGACGTAAGTATCCACACGCGATTGACAGCGTAGAATGAAGG DNA 2: CCTTCATTCTACGCTGTCAATCGCGTGTGGATACTTACGTCACCTTTGAACTTTGACAGC | 8.27 PBM z-score against 500 random probes | 7.89 PBM z-score against 500 random probes |  |  | 7.78 PBM z-score against 500 random probes | 
15 | NRC3_wobSeed82_DR3_T27A_o1 (dsDNA) DNA 1: GCATCGAAAGGTCGACGAGGTGAGTAAACACCGTTTGCGATTGACAGCGTAGAATGAAGG DNA 2: CCTTCATTCTACGCTGTCAATCGCAAACGGTGTTTACTCACCTCGTCGACCTTTCGATGC |  | 3.55 PBM z-score against 500 random probes |  |  | 4.45 PBM z-score against 500 random probes | 
16 | NRC3_wobSeed51_DR2_G23A_o1 (dsDNA) DNA 1: GCCCTCGGAGGACAGAAGGTCAAAGCTGTCCGCTTTGCGATTGACAGCGTAGAATGAAGG DNA 2: CCTTCATTCTACGCTGTCAATCGCAAAGCGGACAGCTTTGACCTTCTGTCCTCCGAGGGC |  | 3.96 PBM z-score against 500 random probes |  |  | 3.12 PBM z-score against 500 random probes | 
17 | NRC3_random_hg19_476_o1 (dsDNA) DNA 1: GCACAGCAAAGAGGCCAGCATGGCTAGAGCAGATCAGCGATTGACAGCGTAGAATGAAGG DNA 2: CCTTCATTCTACGCTGTCAATCGCTGATCTGCTCTAGCCATGCTGGCCTCTTTGCTGTGC | -0.29 PBM z-score against 500 random probes | -0.83 PBM z-score against 500 random probes |  |  |  | 
18 | NRC3_wobSeed134_DR5_G26A_o1 (dsDNA) DNA 1: GCGCTGCTAGGTCAACTGATGGTCAACTAAAGCTCGGCGATTGACAGCGTAGAATGAAGG DNA 2: CCTTCATTCTACGCTGTCAATCGCCGAGCTTTAGTTGACCATCAGTTGACCTAGCAGCGC |  | 3.74 PBM z-score against 500 random probes |  |  | 4.04 PBM z-score against 500 random probes | 
19 | NRC3_wobSeed34_DR1_G20C_o1 (dsDNA) DNA 1: GCATCGAAAGGTCGAAGGTCAGTATACCCACCCGAAGCGATTGACAGCGTAGAATGAAGG DNA 2: CCTTCATTCTACGCTGTCAATCGCTTCGGGTGGGTATACTGACCTTCGACCTTTCGATGC | 7.85 PBM z-score against 500 random probes | 7.04 PBM z-score against 500 random probes |  |  |  | 
20 | NRC3_random_hg19_243_o1 (dsDNA) DNA 1: GCCAAATGCTAGCAGAAGGCAAGAAACAACTAAGATGCGATTGACAGCGTAGAATGAAGG DNA 2: CCTTCATTCTACGCTGTCAATCGCATCTTAGTTGTTTCTTGCCTTCTGCTAGCATTTGGC |  | -0.38 PBM z-score against 500 random probes |  |  | -0.92 PBM z-score against 500 random probes | 
21 | NRC3_random_hg19_398_o1 (dsDNA) DNA 1: GCAAGAAACAACAAACTTAGTACCTAGAAACAAGAGGCGATTGACAGCGTAGAATGAAGG DNA 2: CCTTCATTCTACGCTGTCAATCGCCTCTTGTTTCTAGGTACTAAGTTTGTTGTTTCTTGC |  | 0.12 PBM z-score against 500 random probes |  | -0.22 PBM z-score against 500 random probes |  | 
22 | NRC3_wobSeed37_DR1_G4A_o1 (dsDNA) DNA 1: GCCATCCAAGGTCAAAGGTCAGTGAAGAGATGACGGGCGATTGACAGCGTAGAATGAAGG DNA 2: CCTTCATTCTACGCTGTCAATCGCCCGTCATCTCTTCACTGACCTTTGACCTTGGATGGC |  | 9.27 PBM z-score against 500 random probes |  | 6.38 PBM z-score against 500 random probes |  | 7.54 PBM z-score against 500 random probes
23 | NRC3_wobSeed37_DR1_T5G_o1 (dsDNA) DNA 1: GCCGGCCAAGGTCAAAGGTCAGTGAAGAGATGACGGGCGATTGACAGCGTAGAATGAAGG DNA 2: CCTTCATTCTACGCTGTCAATCGCCCGTCATCTCTTCACTGACCTTTGACCTTGGCCGGC | 10.7 PBM z-score against 500 random probes | 9.26 PBM z-score against 500 random probes |  |  |  | 
24 | NRC3_random_hg19_429_o1 (dsDNA) DNA 1: GCTTAGTGAAGTGAAGGTTGCTTTCTACTCATTTGAGCGATTGACAGCGTAGAATGAAGG DNA 2: CCTTCATTCTACGCTGTCAATCGCTCAAATGAGTAGAAAGCAACCTTCACTTCACTAAGC | -0.28 PBM z-score against 500 random probes | 0.08 PBM z-score against 500 random probes |  |  |  | 
25 | NRC3_wobSeed53_DR2_A17G_o1 (dsDNA) DNA 1: GCCCTTACGGGTCACGGGGTTATAGCACGACGAGCGGCGATTGACAGCGTAGAATGAAGG DNA 2: CCTTCATTCTACGCTGTCAATCGCCGCTCGTCGTGCTATAACCCCGTGACCCGTAAGGGC | 8.24 PBM z-score against 500 random probes | 7.46 PBM z-score against 500 random probes |  |  |  | 

From PMC6555819, “Comprehensive study of nuclear receptor DNA binding provides a revised framework for understanding receptor specificity”
